IC50 data for nine molecules are collected here from US9512220 (dated 2016).

T1: Angiopoietin 1 (UniProt Q15389)
T1 chain: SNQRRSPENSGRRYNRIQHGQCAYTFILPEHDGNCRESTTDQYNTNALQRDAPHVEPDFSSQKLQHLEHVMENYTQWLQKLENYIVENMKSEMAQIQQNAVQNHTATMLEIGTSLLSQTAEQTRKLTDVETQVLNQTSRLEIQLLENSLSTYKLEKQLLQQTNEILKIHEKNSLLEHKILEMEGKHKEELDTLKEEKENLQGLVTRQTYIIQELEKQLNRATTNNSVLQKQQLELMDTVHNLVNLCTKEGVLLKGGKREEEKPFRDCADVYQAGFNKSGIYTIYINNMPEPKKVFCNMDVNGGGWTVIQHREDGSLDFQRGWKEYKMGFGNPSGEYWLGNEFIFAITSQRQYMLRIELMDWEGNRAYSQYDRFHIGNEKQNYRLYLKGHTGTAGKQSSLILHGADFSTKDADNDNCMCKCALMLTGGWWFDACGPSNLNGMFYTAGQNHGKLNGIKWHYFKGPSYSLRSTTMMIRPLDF

T2: Angiopoietin 2 (UniProt O15123)
T2 chain: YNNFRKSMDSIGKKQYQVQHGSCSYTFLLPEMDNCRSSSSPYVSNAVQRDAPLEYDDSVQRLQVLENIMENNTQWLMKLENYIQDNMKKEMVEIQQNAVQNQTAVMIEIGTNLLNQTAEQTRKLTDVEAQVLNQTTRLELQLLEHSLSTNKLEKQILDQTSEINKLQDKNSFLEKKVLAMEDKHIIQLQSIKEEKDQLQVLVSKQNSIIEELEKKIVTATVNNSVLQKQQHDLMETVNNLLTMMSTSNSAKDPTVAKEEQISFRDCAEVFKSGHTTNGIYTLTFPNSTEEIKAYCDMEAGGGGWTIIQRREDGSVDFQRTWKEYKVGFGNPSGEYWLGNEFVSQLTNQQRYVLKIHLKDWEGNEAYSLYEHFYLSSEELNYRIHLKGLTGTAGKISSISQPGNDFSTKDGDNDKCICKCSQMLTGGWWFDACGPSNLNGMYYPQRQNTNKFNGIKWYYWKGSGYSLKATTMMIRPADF

B1: HC14/LC14 (antibody, V domains shown)
VH: EVQLLESGGGLVQPGGSLGLSCAASGFTLSNYDMSWVRQAPGKGLEWVSWISPDSSSTYYADSVKGRFTISRDNSKNTLYLQMNSLRAEDTAVYYCARSVMPFDYWGQGTLVTVSS
VL: QSVLTQPPSASGTPGQRVTISCSGSSSNIGSNAVYWYQQLPGTAPKLLIYDDSKRPSGVPDRFSGSKSGTSASLAIGGLRSEDEADYYCGAWDDSLSAYVFGGGTKLTVL
B2: HC16/LC16 (antibody, V domains shown)
VH: EVQLLESGGGLVQPGGSLRLSCAASGFTFSDYYMSWVRQAPGKGLEWVSSISYDDGSRKYYADSGKRSVTISRDNSKNTLYLQMNSLRAEDTAVYYCARDRSTLRLDSFDYWGQGTLVTVSS
VL: B1 VL with Q16R, S27P, S31N, A33T, Y35N, D51S, K54H, G77S, D94Y, S97N
B3: HC2/LC2 (antibody, V domains shown)
VH: EVQLLESGGGLVQPGGSLRLSCAASGFTFSNYAMSWVRQAPGKGLEWVSVISPGSGNTYYADSVKGRFTISRDNSKNTLYLQMNSLRAEDTAVYYCAKGALKCRHRSCSSYNAMDVWGQGTLVTVSS
VL: QSVLTQPPSASGTPGQRVTISCTGSSSNIGNNDVSWYQQLPGTAPKLLIYDNNHRPSGVPDRFSGSKSGTSASLAISGLRSEDEADYYCGTWDASLNGYVFGGGTKLTVL
B4: HC4/LC4 (antibody, V domains shown)
VH: EVQLLESGGGLVQPGGSLRLSCAASGFTFSNYAMSWVRQAPGKGLEWVSAISHGGSSKYYADSVKGRFTISRDNSKNTLYLQMNSLRAEDTAVYYCARDRTASLLDGFDYWGQGTLVTVSS
VL: B3 VL with T23S, D33Y, S35N, D51A, N52D, N53S, H54N, N97S
B5: HC12/LC12 (antibody, V domains shown)
VH: B3 VH
VL: B3 VL
B6: HC8/LC8 (antibody, V domains shown)
VH: EVQLLESGGGLVQPGGSLRLSCAASGFTFSNYSMSWVRQAPGKGLEWVSAISPGNGNKYYADSVKGRFTISRDNSKNTLYLQMNSLRAEDTAVYYCAKGLSSLLLVGFDYWGQGTLVTVSS
VL: B3 VL with T23S, D51S, N52D, N53S, H54Q, T91S
B7: HC10/LC10 (antibody, V domains shown)
VH: EVQLVESGGGLVQPGGSLRLSCAASGFTFSNYAMSWVRQAPGKGLEWVSWIYPDNGNTYYADSVKGRFTISRDNSKNTLYLQMNSLRAEDTAVYYCAKYSLDKYTPWPYSYYGMDVWGQGTLVTVSS
VL: B3 VL with D33A, S35T, N52D, N53S, V59A, N97S, G98A
B8: HC18/LC18 (antibody, V domains shown)
VH: B1 VH with G19R, L29F, N31D, S55D, S56G, T58I, M101L
VL: B1 VL with G77S, L79F, A91S, D94A, S97N
B9: HC22/LC22 (antibody, V domains shown)
VH: EVQLVQSGAEVKKPGASVKVSCKASGGTFSSYAISWVRQAPGQGLEWMGGIIPIFGTANYAQKFQGRVTITADESTSTAYMELSSLRSEDTAVYYCARGGSGRFDYWGQGTLVTVSS
VL: QSALTQPASVSGSPGESIIISCTGTSSDVGAYNYVSWYQQHLGKAPKLMIYDVSQRPSGVSDRFSGSKSGNTASLTISGLQAEDEADYYCSSFTGDSVIFGGGTKLTVL

Where a chain is given by its changes, count along the chain named.

In the first test the target is T1, Angiopoietin 1. Nature of the test: competition, blocking Tie-2.
Broadly, the IC50 is the point on the concentration scale where inhibition reaches its midpoint. As for B1, the IC50 was determined as 0.74 nM.

B2 displayed an IC50 of 0.26 nM.

B3 returned a 50% inhibitory concentration (IC50) of 0.23 nM.

Molecule B4 showed a half-inhibitory concentration (IC50) of 0.26 nM.

The molecule B5 showed a concentration for half-maximal inhibition (IC50) of 0.38 nM.

Molecule B6 displayed a half-maximal inhibitory concentration (IC50) of 0.21 nM.

With B7, the concentration for half-maximal inhibition (IC50) turned out to be 0.19 nM. The IC50 values of the last two molecules are within 1.5-fold of each other.

Take B8: the half-maximal inhibitory concentration (IC50) turned out to be 0.24 nM. This IC50 and that of the molecule before are within 1.5-fold of each other.

B9 showed a half-inhibitory concentration (IC50) of 0.24 nM.

Another test deals with T2, Angiopoietin 2. Nature of the test: competition, blocking Tie-2.
Molecule B1 displayed a concentration for half-maximal inhibition (IC50) of 0.08 nM.

Turning to B2, the IC50 was 0.32 nM. Compared with the last molecule, the IC50 is about 4-fold higher.

Take B3: the half-inhibitory concentration (IC50) stood at 0.06 nM.

B4 had an IC50 of 1.35 nM.

In turn, B5 showed a concentration for half-maximal inhibition (IC50) of 0.04 nM.

Consider B6, for which the IC50 was found to be 0.2 nM. Compared with the last molecule, the IC50 is about 5-fold higher.

The molecule B7 yielded an IC50 of 1.22 nM.

Turning to B8, the 50% inhibitory concentration (IC50) is 2.85 nM.

On to B9, for which the 50% inhibitory concentration (IC50) was found to be 0.03 nM. Against the preceding molecule, the IC50 is about 95-fold lower.
